Test results reported in US20170306005A1 (NASCIENT, published 2017).

Legend:
[1] = molecular target: T1, human tenascin-R rCd4-His-FBG (rat; human, UniProt P05540 207-392, limits assumed); assay: SPR off-rate screen, captured IgG4 supernatant, 25 C; SPR off-rate screen, native antigen at 100 nM, IgG4 in supernatant, 25 C
T1 construct: domain: domains 3 and 4; C-terminal FBG fusion; also called Hu TNR; human TNR rCd4-His-FBG; not shown: 6His tag
T1 sequence (chain (part 1 of 2)): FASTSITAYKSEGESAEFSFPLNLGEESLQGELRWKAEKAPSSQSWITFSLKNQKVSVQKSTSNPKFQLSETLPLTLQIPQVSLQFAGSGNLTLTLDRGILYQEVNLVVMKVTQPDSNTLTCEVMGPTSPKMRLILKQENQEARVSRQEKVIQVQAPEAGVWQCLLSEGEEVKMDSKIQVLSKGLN
T1 sequence (chain (part 2 of 2)): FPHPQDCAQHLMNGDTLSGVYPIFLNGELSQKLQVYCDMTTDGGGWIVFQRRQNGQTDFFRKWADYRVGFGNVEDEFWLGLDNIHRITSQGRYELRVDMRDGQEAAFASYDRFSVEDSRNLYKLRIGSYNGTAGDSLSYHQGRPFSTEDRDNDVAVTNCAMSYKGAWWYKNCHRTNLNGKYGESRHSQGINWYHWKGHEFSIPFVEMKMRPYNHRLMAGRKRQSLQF
Description: The 31 scFv of interest were sub-cloned into a human IgG4 expression vector for generation of antibodies as human IgG4 with a hinge-stabilising mutation (S241P; Angal et al, 1993). […] Briefly, surface plasmon resonance (SPR) experiments were performed using a BIAcore T100 instrument and followed the protocol according to the Human antibody capture kit protocol (GE, BR-1008-39). For off-rate screening, 10,000 response units (RU) of anti-human Fc IgG (GE, BR-1008-39) was immobilised on flow-cells (FC1 and FC2) of a Series 5 CM5 dextran sensor chip (BR-1005-30) using EDC/NHS cross-linking chemistry according to the amine coupling kit protocol (GE, BR-1000-50). Culture supernatants containing expressed IgG4 were diluted 1:2 with 2×PBS-T and injected into FC2 (flowrate 5 μl/min, 60 s contact time) to enable antibody capture at 25° C. […] A fixed concentration of antigen (15 nM of human and mouse TNC rCd4-His-FBG and 100 nM of human TNR rCd4-His-FBG) was injected with a flow-path via FC 1 (reference flow cell) and FC 2 (antibody capture flow cell), with a flow rate of 30 μl/min, and the association and dissociation phases measured over 1 and 5 min time periods, respectively. […] Off rates were determined by reference cell subtraction and fitting the sensogram experimental data assuming a 1:1 interaction using BIAevaluation software (GE, BR-1005-97).

[2] = molecular target: T2, human tenascin-C rCd4-His-FBG (rat; human, UniProt P05540 207-392, limits assumed); assay: SPR off-rate screen, captured IgG4 supernatant, 25 C
T2 construct: domain: domains 3 and 4; C-terminal FBG fusion; biotinylated in the ELISA and HTRF screens; also called Hu TNC; human TNC rCd4-His-FBG; not shown: 6His tag
T2 sequence (chain (part 1 of 2)): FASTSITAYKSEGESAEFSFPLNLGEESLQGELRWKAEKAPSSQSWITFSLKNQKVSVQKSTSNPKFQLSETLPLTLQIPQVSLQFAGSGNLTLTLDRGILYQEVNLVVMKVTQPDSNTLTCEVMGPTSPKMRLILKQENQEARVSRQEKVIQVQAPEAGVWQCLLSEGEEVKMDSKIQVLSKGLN
T2 sequence (chain (part 2 of 2)): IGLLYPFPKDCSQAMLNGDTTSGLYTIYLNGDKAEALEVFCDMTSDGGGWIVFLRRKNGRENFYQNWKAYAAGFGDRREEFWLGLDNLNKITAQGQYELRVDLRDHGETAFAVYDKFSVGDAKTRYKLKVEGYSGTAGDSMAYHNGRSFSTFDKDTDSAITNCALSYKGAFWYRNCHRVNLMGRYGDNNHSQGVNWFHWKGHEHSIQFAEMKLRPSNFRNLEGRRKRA
Summary of the method: (§1)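 SPR at 25 °C: IgG4 (S241P) from culture supernatant, diluted 1:2 in 2×PBS-T, captured on anti-human Fc surface; antigen injected at a fixed 15 nM (human and mouse TNC rCd4-His-FBG) or 100 nM (human TNR rCd4-His-FBG), 30 μl/min. Association 1 min, dissociation 5 min; off-rates from reference-subtracted 1:1 fits.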

[3] = molecular target: T3, mouse tenascin-C rCd4-His-FBG (rat; mouse, UniProt P05540 207-392, limits assumed); assay: as above
T3 construct: domain: domains 3 and 4; C-terminal FBG fusion; biotinylated in the ELISA screen; also called Mu TNC; mouse TNC rCd4-His-FBG; not shown: 6His tag
T3 sequence (chain (part 1 of 2)): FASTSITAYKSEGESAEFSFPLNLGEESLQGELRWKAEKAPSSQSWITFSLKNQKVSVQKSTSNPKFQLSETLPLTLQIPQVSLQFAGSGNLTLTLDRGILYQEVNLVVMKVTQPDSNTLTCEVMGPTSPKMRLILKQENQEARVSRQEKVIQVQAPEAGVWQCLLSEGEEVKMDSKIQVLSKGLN
T3 sequence (chain (part 2 of 2)): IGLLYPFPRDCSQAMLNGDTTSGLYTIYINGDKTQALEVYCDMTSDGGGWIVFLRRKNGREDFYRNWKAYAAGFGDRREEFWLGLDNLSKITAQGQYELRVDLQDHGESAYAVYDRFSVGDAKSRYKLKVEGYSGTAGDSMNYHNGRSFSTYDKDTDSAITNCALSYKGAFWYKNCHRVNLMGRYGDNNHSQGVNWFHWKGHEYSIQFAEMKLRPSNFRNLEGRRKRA
Summary of the method: as §1

[4] = molecular target: T2, human tenascin-C rCd4-His-FBG; assay: SPR, captured purified IgG4, 37 C
Description: (§2) Detailed kinetic parameters were evaluated for the 9 prioritised IgG4 antibodies. Binding characteristics were determined for interaction with human, rat and dog TNC rCD4-His-FBG, and human TNR rCD4-His-FBG. Kinetic assays followed essentially the same protocols as for the off-rate determinations described above, with some modifications as follows. […] Purified anti-FBG IgG4 was diluted to a concentration of 3.5 nM in PBS, pH 7.4, 0.05% Tween-20 and injected into FC2 at a flow rate of 10 μl/min, 60 s contact time. […] Antigens were prepared by doubling dilution in PBS, pH 7.4, 0.05% Tween-20 (highest concentration 100 nM except mouse rCD4-His-FBG which was 7 nM). Assays were performed at 37° C. (30 μl/min, 120 s contact time; mouse rCD4-His-FBGFBG 10 μl/min, 60 s contact time), with both the flow cell and injection chamber equilibrated to this temperature. As before, kinetic parameters were determined by reference cell subtraction and fitting the sensogram experimental data assuming a 1:1 interaction using BIAevaluation software (GE, BR-1005-97).

[5] = molecular target: T3, mouse tenascin-C rCd4-His-FBG; assay: SPR, captured purified IgG4, 37 C
Description: as §2

human His-FBG = molecular target: T4, human His-FBG (human, UniProt P24821 1974-2201); assay: SPR, captured IgG4, 25 C, mean of 3
T4 construct: non-citrullinated control, incubated in deimination buffer without PAD enzyme; also called unmodified His-FBG; not shown: His tag
T4 sequence: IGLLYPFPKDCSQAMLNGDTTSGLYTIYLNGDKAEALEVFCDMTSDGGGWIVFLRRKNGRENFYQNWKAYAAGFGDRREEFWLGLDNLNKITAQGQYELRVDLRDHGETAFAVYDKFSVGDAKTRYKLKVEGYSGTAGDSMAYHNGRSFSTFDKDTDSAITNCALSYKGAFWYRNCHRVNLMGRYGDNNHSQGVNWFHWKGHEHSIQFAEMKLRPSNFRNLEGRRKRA
Description: (§3) Purified human His-FBG was citrullinated using either peptidylarginine deiminase 2 (PAD2; MQ-16.201-2.5, Modiquest, NL) or peptidylarginine deiminase 4 (PAD4; MQ-16.203-2.5, Modiquest, NL) according to the supplier's instructions. […] Aliquots of His-FBG in deimination buffer were incubated for 2 h at 37° C. in the absence of added PAD enzyme, for use as non-citrullinated control protein. Citrullinated and unmodified His-FBG proteins were used in SPR experiments as described below.
(§4) SPR experiments were performed on a BIAcore 3000 instrument. Anti-human IgG (GE Healthcare) was covalently coupled to the surface of a CM5 sensor chip using amino coupling chemistry. […] The flow rate was 5 μl/min in the immobilization experiments and 20 μl/min for kinetic analyses. The sensor chip surface was regenerated using 3 M MgCl₂. Data were analysed using BIAevaluation program 4.1 (GE Healthcare).

[6] = molecular target: T5, human His-FBG citrullinated with PAD4 (human, UniProt P24821 1974-2201, arginines citrullinated by peptidylarginine deiminase 4; positions not stated); assay: SPR, captured IgG4, 25 C, mean of 3
T5 construct: also called His-FBG + PAD4; citrullinated His-FBG; not shown: His tag
T5 sequence: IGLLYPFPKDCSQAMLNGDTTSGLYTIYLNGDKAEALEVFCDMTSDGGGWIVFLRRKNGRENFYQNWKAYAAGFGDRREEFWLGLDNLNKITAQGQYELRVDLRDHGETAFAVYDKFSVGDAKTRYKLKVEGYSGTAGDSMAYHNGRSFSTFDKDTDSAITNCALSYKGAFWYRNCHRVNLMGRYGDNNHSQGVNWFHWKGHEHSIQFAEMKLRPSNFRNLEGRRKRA
Description: as §3, §4

[7] = molecular target: T6, human His-FBG citrullinated with PAD2 (human, UniProt P24821 1974-2201, arginines citrullinated by peptidylarginine deiminase 2; positions not stated); assay: SPR, captured IgG4, 25 C, mean of 3
T6 construct: also called His-FBG + PAD2; citrullinated His-FBG; not shown: His tag
T6 sequence: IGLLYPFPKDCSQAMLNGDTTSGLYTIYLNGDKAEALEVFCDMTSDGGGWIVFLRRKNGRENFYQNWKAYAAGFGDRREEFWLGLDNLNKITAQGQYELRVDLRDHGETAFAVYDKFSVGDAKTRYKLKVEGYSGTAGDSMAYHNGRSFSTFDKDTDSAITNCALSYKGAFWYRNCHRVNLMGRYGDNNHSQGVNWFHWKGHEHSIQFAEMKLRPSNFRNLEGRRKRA
Description: as §3, §4

- koff [1]: 0.1 s⁻¹
- koff [2]: 0.00015 s⁻¹
- koff [3]: 0.03 s⁻¹
- Kd [4]: 0.24 nM
- koff [4]: 0.00112 s⁻¹
- kon [4]: 4.71e+06 M⁻¹ s⁻¹
- Kd [5]: 4.5 nM
- koff [5]: 0.00138 s⁻¹
- kon [5]: 300000 M⁻¹ s⁻¹
- Kd (human His-FBG): 0.17 nM
- koff (human His-FBG): 0.00068 s⁻¹
- kon (human His-FBG): 4.1e+06 M⁻¹ s⁻¹
- Kd [6]: 0.32 nM
- koff [6]: 0.00078 s⁻¹
- kon [6]: 2.6e+06 M⁻¹ s⁻¹
- Kd [7]: 0.32 nM
- koff [7]: 0.00096 s⁻¹
- kon [7]: 3e+06 M⁻¹ s⁻¹
B1: B12 human IgG4 (antibody, V domains shown)
VH: QVQLVESGGGLVQPGRSLRLSCAASGFTFDDYAMHWVRQAPGKGLEWVSGISGSGGSTYYADSVKGRFTISRDNAKNSLYLQMNSLRAEDTALYYCAKDISAVPDTFDIWGQGTMVTVSS
VL: DIQMTQSPASLPTPVGDRVTITCRASQYIQGFLNWYQQKPGKAPKLLIYDASNLETGVPSRFSGSGSGTDFTLTISSLQPEDFATYYCQQSYSTPQTFGQGTKVDIKR
notes: human IgG4 with hinge S241P; also called B12 parent; B12-hIgG4
